As a reminder, the stoichiometry N is the number of molecules, sites or subunits per partner or assembly.

In paper PMC2719339 one finds stoichiometry N data, which are given here for 1 substance.

Experiment [1] addresses thiostrepton resistance RNA methyltransferase (Tsr) (Streptomyces azureus) (UniProt P18644). Briefly: native gel or EMSA. (Mobility shift assays separate free from complexed probe on a gel.)
The target is the same in experiment [2]. Briefly: SEC. (In general: SEC sorts molecules by how far they enter the pores of the column.)

As to “thiostrepton resistance RNA methyltransferase (Tsr) (from UniProt P18644 1-269) (enzyme)”, the stoichiometry N in experiment [1] and in experiment [2] was 2 each time.
